Assay results reported in publication PMC3242593, “Influence of glioma tumour microenvironment on the transport of ANG1005 via low-density lipoprotein receptor-related protein 1” (British Journal of Cancer, 2011).

System: U87 human glioblastoma cells
Assay: [125I]-Angiopep-2 or [125I]-ANG1005 uptake assay in U87 cells (LRP1-mediated endocytosis)
Format: cell-based
Settings: unlabelled Angiopep-2 50 μM or preincubated RAP 1 μM, percentage of control, quadruplicate
Protocol: In brief, beads were washed twice with 3 ml of PBS on a Whatman filter and resuspended in 60 μl of PBS. Na^125I (1 mCi) from GE Healthcare (Baie d’Urfé, QC, Canada) was added to the bead suspension for 5 min at room temperature. Iodination was initiated by adding 100 μg of peptide (80–100 μl) diluted in 0.1 M phosphate buffer solution, pH 6.5.
In-vitro silencing of LRP1 was carried out by standard methodologies ([Song et al, 2009]). The sequences of oligonucleotides were […]tt (sense) and […]tt (antisense). Human U87 glioblastoma cells were grown to 50% confluence and were transfected with LRP1 silencing RNA (siRNA) using Lipofectamine 2000 (Life Technologies Corporation, Carlsbad, CA, USA) according to the manufacturer's specifications. After 48 h of transfection, cells were used for subsequent assays. Expression of proteins was assessed by western blot analysis.
Cells were incubated in medium in which the sodium bicarbonate had been replaced with Ringer/HEPES buffer (150 mM NaCl, 5.2 mM KCl, 2.2. mM CaCl2, 0.2 mM MgCl2·6H2O, 6 mM NaHCO3, 2.8 mM glucose, and 5 mM HEPES). […]
Cells were seeded in a 24-well plate (5 × 10^4 cells per well) in appropriate media and fed for 3 days. […] Results were quantified with a Wizard 1470 Gamma counter (Perkin-Elmer, Woodbridge, ON, Canada). […]

B1: RAP: receptor-associated protein, a known LRP1 ligand that competitively inhibits uptake of Angiopep-2 (protein, UniProt P30533 35-357, looked up)
Alpha-2-macroglobulin …: YSREKNQPKPSPKRESGEEFRMEKLNQLWEKAQRLHLPPVRLAELHADLKIQERDELAWKKLKLDGLDEDGEKEARLIRNLNVILAKYGLDGKKDARQVTSNSLSGTQEDGLDDPRLEKLWHKAKTSGKFSGEELDKLWREFLHHKEKVHEYNVLLETLSRTEEIHENVISPSDLSDIKGSVLHSRHTELKEKLRSINQGLDRLRRVSHQGYSTEAEFEEPRVIDLWDLAQSANLTDKELEAFREELKHFEAKIEKHNHYQKQLEIAHEKLRHAESVGDGERVSRSREKHALLEGRTKELGYTVKKHLQDLSGRISRARHNEL
effect of unlabelled competitor on uptake of [125I]-Angiopep-2 (500 nM): inhibited
